In US11319368B2, “Treatment of hepatotoxicity with IL-11 antibody” (Singapore Health Services PTE LTD., priority 2019, dated 2022):

Experiments:
[1] = tested on: human hepatocytes; settings: 0.2 mM H2O2, 24 hours
Procedure: Human hepatocytes (5200, ScienCell) were grown and maintained at 37° C. and 5% CO2. Hepatocyte medium (5201, ScienCell) supplemented with 2% fetal bovine serum and 1% Penicillin-streptomycin was renewed every 2-3 days and cells were passaged at 80% confluence using standard trypsinization techniques. All the experiments were carried out at low cell passage (P2-P3) and cells were serum-starved for 16 hours prior to respective stimulations (24 hours) that were performed in serum-free hepatocyte media. Stimulated cells were compared to unstimulated cells that have been grown for the same duration under the same conditions (serum-free hepatocyte media), but without the stimuli. […] The levels of IL-11 in mouse serum and hepatocyte supernatant were quantified using Mouse IL-11 DuoSet (DY418 and DY008, R&D Systems) and Human IL-11 Quantikine ELISA kit [MUT], R&D Systems), respectively, according to the manufacturer's protocol.

[2] = tested on: AILI; assay: X209, NAC or NAC+X209 3 h after APAP in mice
Procedure: Mice were administered anti-IL11Rα (X209) or IgG isotype control antibody at different times and doses, as described above or in the figure legends.
The levels of alanine transaminase (ALT) or aspartate aminotransferase (AST) in mouse serum and hepatocyte supernatant were measured using ALT Activity (ab105134, Abcam) or AST (ab105135, Abcam) Assay Kits. Liver glutathione sulfhydryl (GSH) measurements were performed using Glutathione Colorimetric Detection Kit (EIAGSHC, Thermo Fisher). All colorimetric assays were performed according to the manufacturer's protocol.
Western blots were carried out from hepatocyte and liver tissue lysates. Hepatocytes and tissues were homogenized in radioimmunoprecipitation assay (RIPA) buffer containing protease and phosphatase inhibitors (Thermo Fisher), followed by centrifugation to clear the lysate. Protein concentrations were determined by Bradford assay (Bio-Rad). Equal amounts of protein lysates were separated by SDS-PAGE, transferred to PVDF membrane, and subjected to immunoblot analysis for the indicated primary antibodies. Proteins were visualized using the ECL detection system (Pierce) with the appropriate secondary antibodies.

[3] = tested on: rheumatoid synovial cells; settings: cited from earlier work
[4] = tested on: liver; settings: single subcutaneous injection 500 μg kg^-1
Procedure: (A) Effect of recombinant human IL11 (rhIL11, 10 ng ml^−1) or recombinant mouse IL11 (rmIL11, 10 ng ml^−1) on ERK, JNK and CASP3 activation status in mouse hepatocytes. (B) ALT levels in mouse hepatocyte supernatant following stimulation by rmIL11 (10 ng ml^−1) or by increasing doses of rhIL11 (1, 5, 10, 15 and 20 ng ml^−1). (C) Schematic of mice receiving a single subcutaneous injection of either saline, rhIL11, or rmIl11 (500 μg kg^−1). (D) Western blot analysis of hepatic p-ERK, p-JNK, and Cl. […] Dose-dependent inhibition effect of rhIL11 on rmIL11-induced (K) ALT secretion and (L) CASP3 activation by mouse hepatocytes. (A, B, K, L) 24 h. (B, K) Data are shown as mean±SD; (E, G) Data are shown as box-and-whisker with median (middle line), 25th-75th percentiles (box), and minimum-maximum values (whiskers). (B, K) Two-tailed, Tukey-corrected Student's t-test; (E) two-tailed Student's t-test; (G) two-tailed Dunnett's test.
The levels of alanine transaminase (ALT) or aspartate aminotransferase (AST) in mouse serum and hepatocyte supernatant were measured using ALT Activity (ab105134, Abcam) or AST (ab105135, Abcam) Assay Kits. […] All colorimetric assays were performed according to the manufacturer's protocol.
Western blots were carried out from hepatocyte and liver tissue lysates. […] Protein concentrations were determined by Bradford assay (Bio-Rad). […]

[5] = tested on: human hepatocytes; assay: rhIL11 versus rmIL11 on human hepatocytes; type: cell-based; settings: 10 ng ml^-1
[6] = tested on: AILI; assay: rhIL11 or rmIL11 injection in APAP OD mice; type: in vivo, mouse
Procedure: FIGS. 10A to 10L. […] (A, B, K, L) 24 h. […] FC: fold change

[7] = tested on: mouse hepatocytes; assay: rhIL11 versus rmIL11 on mouse hepatocytes; type: cell-based
Text: Mouse hepatocytes (ABC-TC3928, AcceGen Biotech) were maintained in mouse hepatocyte medium (ABC-TM3928, AcceGen Biotech) supplemented with 1% Penicillin-streptomycin.

[8] = tested on: primary human hepatocytes; assay: IL11 stimulation of primary human hepatocytes with sgp130 or sIL11Rα; type: cell-based; settings: for effect on IL11-induced hepatocyte death and signaling: IL11 20 ng/ml, sgp130, sIL11Rα 1 μg/ml; for effect on ALT release from IL11-stimulated hepatocytes: increasing doses
[9] = tested on: APAP overdose acute liver injury; assay: Severe APAP overdose in mice, anti-IL11 antibody (X203) 16 h before; type: in vivo, mouse; settings: 20 mg/kg IP 16 hours before APAP 400 mg/kg; 24 hours after APAP
[10] = tested on: kidney; settings: 100-1000 μg/kg, IP; 10 minutes prior to or 30-60 minutes following IR; cited from earlier work
[11] = tested on: primary human hepatocytes; assay: hyperIL11 or hyperIL6 stimulation of primary human hepatocytes, with or without sgp130; type: cell-based

## OO [H2O2, hydrogen peroxide]
[1]
  IL-11 upregulated in the supernatant: 10 fold

## CC(=O)N[C@@H](CS)C(=O)O [NAC, N-acetyl-cysteine, reference compound]
[2]; 3 h after APAP, NAC 500 mg kg^-1, X209 5 mg kg^-1
  ALT reduction: 38%
[2]; NAC 500 mg kg^-1 3 h after APAP
  serum levels of ALT and AST: reduced serum levels of ALT and AST

## COc1ccc2c(c1)c(CC(=O)O)c(C)n2C(=O)c1ccc(Cl)cc1 [indomethacin, reference compound]
[3]
  expression of IL-11: reduction in the expression of IL-11

## interferon-gamma: interferon-gamma (IFNγ)
[3]
  expression of IL-11: reduction in the expression of IL-11

B1: rmIL11: recombinant mouse IL11 (UniProtKB: P47873, Genscript) (protein)
chain: PGPPAGSPRVSSDPRADLDSAVLLTRSLLADTRQLAAQMRDKFPADGDHSLDSLPTLAMSAGTLGSLQLPGVLTRLRVDLMSYLRHVQWLRRAGGPSLKTLEPELGALQARLERLLRRLQLLMSRLALPQAAPDQPVIPLGPPASAWGSIRAAHAILGGLHLTLDWAVRGLLLLKTRL
[4]
  hepatic ERK and JNK phosphorylation: gradual ERK and immediate JNK activation
[5]
  ERK and JNK signaling and hepatocyte death: did not
[6]; APAP injury
  hepatic GSH levels after APAP: did not
[6]; subcutaneous injection, APAP OD
  protection against AILI: not protective
[7]; 10 ng ml^-1, 24 h
  ERK and JNK phosphorylation, CASP3 cleavage: stimulated ERK and JNK phosphorylation and induced CASP3 cleavage
[7]; 24 h
  mouse hepatocyte cell death (ALT in supernatant): induced mouse hepatocyte cell death

B2: sIL11Rα: soluble IL11Rα (human IL11Rα, R&D systems) (protein, UniProt Q14626 24-370, looked up)
extracellular domain: SPCPQAWGPPGVQYGQPGRSVKLCCPGVTAGDPVSWFRDGEPKLLQGPDSGLGHELVLAQADSTDEGTYICQTLDGALGGTVTLQLGYPPARPVVSCQAADYENFSCTWSPSQISGLPTRYLTSYRKKTVLGADSQRRSPSTGPWPCPQDPLGAARCVVHGAEFWSQYRINVTEVNPLGASTRLLDVSLQSILRPDPPQGLRVESVPGYPRRLRASWTYPASWPCQPHFLLKFRLQYRPAQHPAWSTVEPAGLEEVITDAVAGLPHAVRVSARDFLDAGTWSTWSPEAWGTPSTGTIPKEIPAWGQLHTQPEVEPQVDSPAPPRPSLQPHPRLLDHRDSVEQVAVLA
modifications: extracellular domain
[8]
  effect on IL11-induced hepatocyte death and signaling: unaffected
  effect on ALT release from IL11-stimulated hepatocytes: no effect on ALT release

B3: X203: antagonist anti-IL11 antibody (Ng et al., Sci Transl Med. 2019) (antibody, V domains shown)
VH: EVQLQQSGPELVKPGASVKIPCKASGYTFTDYNMDWVKQSHGKSLEWIGDINPHNGGPIYNQKFTGKATLTVDKSSSTAYMELRSLTSEDTAVYYCARGELGHWYFDVWGTGTTVTVSS
VL: DIVLTQSPASLAVSLGQRATISCRASKSVSTSGYSYIHWYQQKPGQPPKLLIYLASNLDSGVPARFSGSGSGTDFTLNIHPVEEEDAATYYCQHSRDLPPTFGGGTKLEIK
[9]
  serum ALT levels: substantial reduction
  serum AST levels: substantial reduction

B4: PEGylated rhIL11: PEGylated rhIL11 (Lee et al. 2012) (conjugate, UniProt P20809 22-199, looked up)
Interleukin-11: PGPPPGPPRVSPDPRAELDSTVLLTRSLLADTRQLAAQLRDKFPADGDHNLDSLPTLAMSAGALGALQLPGVLTRLRADLLSYLRHVQWLRRAGGSSLKTLEPELGTLQARLDRLLRRLQLLMSRLALPQPPPDPPAPPLAPPSSAWGGIRAAHAILGGLHLTLDWAVRGLLLLKTRL
modifications: PEG
[10]
  renoprotection: The authors conclude that IL11 is renoprotective based on pre-

B5: HyperIL11: IL11Rα:IL11 fusion protein which mimics the trans-signalling complex (SEQ ID NO:21) (protein)
chain: MSSSCSGLSRVLVAVATALVSASSPCPQAWGPPGVQYGQPGRSVKLCCPGVTAGDPVSWFRDGEPKLLQGPDSGLGHELVLAQADSTDEGTYICQTLDGALGGTVTLQLGYPPARPVVSCQAADYENFSCTWSPSQISGLPTRYLTSYRKKTVLGADSQRRSPSTGPWPCPQDPLGAARCVVHGAEFWSQYRINVTEVNPLGASTRLLDVSLQSILRPDPPQGLRVESVPGYPRRLRASWTYPASWPCQPHFLLKFRLQYRPAQHPAWSTVEPAGLEEVITDAVAGLPHAVRVSARDFLDAGTWSTWSPEAWGTPSTGPAGQSGGGGGSGGGSGGGSVPGPPPGPPRVSPDPRAELDSTVLLTRSLLADTRQLAAQLRDKFPADGDHNLDSLPTLAMSAGALGALQLPGVLTRLRADLLSYLRHVQWLRRAGGSSLKTLEPELGTLQARLDRLLRRLQLLMSRLALPQPPPDPPAPPLAPPSSAWGGIRAAHAILGGLHLTLDWAVRGLLLLKTRL
modifications: Hyper IL-11 (IL-11RAIL-11 fusion)
[11]; 2.5 ng/ml to 20 ng/ml, 24 h
  ERK and JNK activation: activated ERK and JNK in a dose-dependent manner
[11]; dose range, 24 h
  alanine transaminase (ALT) in the media: dose-dependent increase in alanine transaminase (ALT)

B6: sgp130: human soluble gp130 Fc, inhibitor of trans-signaling complexes acting through gp130 (protein)
chain: ELLDPCGYISPESPVVQLHSNFTAVCVLKEKCMDYFHVNANYIVWKTNHFTIPKEQYTIINRTASSVTFTDIASLNIQLTCNILTFGQLEQNVYGITIISGLPPEKPKNLSCIVNEGKKMRCEWDGGRETHLETNFTLKSEWATHKFADCKAKRDTPTSCTVDYSTVYFVNIEVWVEAENALGKVTSDHINFDPVYKVKPNPPHNLSVINSEELSSILKLTWTNPSIKSVIILKYNIQYRTKDASTWSQIPPEDTASTRSSFTVQDLKPFTEYVFRIRCMKEDGKGYWSDWSEEASGITYEDRPSKAPSFWYKIDPSHTQGYRTVQLVWKTLPPFEANGKILDYEVTLTRWKSHLQNYTVNATKLTVNLTNDRYLATLTVRNLVGKSDAAVLTIPACDFQATHPVMDLKAFPKDNMLWVEWTTPRESVKKYILEWCVLSDKAPCITDWQQEDGTVHRTYLRGNLAESKCYLITVTPVYADGPGSPESIKAYLKQAPPSKGPTVRTKKVGKNEAVLEWDQLPVDVQNGFIRNYTIFYRTIIGNETAVNVDSSHTEYTLSSLTSDTLYMVRMAAYTDEGGKDGPEFTFTTPKFAQGEIE
modifications: left off: a dimerising Fc or GST
[11]; increasing amounts of sgp130
  hepatotoxic effects of hyperIL11 (ALT): inhibited the hepatotoxic effects of hyperIL11
[11]; sgp130 with hyperIL11 or hyperIL6 20 ng/ml
  signaling pathways downstream of hyperIL11 and hyperIL6: blocked the activation of signaling pathways downstream of both hyperIL11 (p-ERK/p-JNK) and hyperIL6 (p-STAT3)
[8]
  effect on IL11-induced hepatocyte death and signaling: unaffected
  effect on ALT release from IL11-stimulated hepatocytes: no effect on ALT release
